Experimental data reported in IntAct's records for PubMed 22363216.

biological target: arfg1_rat Arfgap1 (UniProt Q62848)
Sequence (Q62848 whole entry): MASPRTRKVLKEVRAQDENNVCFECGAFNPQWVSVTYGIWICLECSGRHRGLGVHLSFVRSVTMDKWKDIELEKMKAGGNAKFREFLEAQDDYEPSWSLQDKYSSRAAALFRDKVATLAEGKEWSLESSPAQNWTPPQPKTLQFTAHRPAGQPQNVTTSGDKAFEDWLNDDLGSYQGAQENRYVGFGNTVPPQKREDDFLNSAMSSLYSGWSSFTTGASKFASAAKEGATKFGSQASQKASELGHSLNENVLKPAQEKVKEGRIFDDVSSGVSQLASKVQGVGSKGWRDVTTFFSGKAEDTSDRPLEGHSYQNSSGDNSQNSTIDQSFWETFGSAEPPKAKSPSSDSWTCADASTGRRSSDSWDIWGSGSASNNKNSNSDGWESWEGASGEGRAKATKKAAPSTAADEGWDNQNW

Substance | effect of a mutation on the interaction
Leucine-rich repeat serine/threonine-protein kinase 2 (Homo sapiens), Q5S007 R1398L | decreasing interaction
Leucine-rich repeat serine/threonine-protein kinase 2 (Homo sapiens), Q5S007 R1441C | increasing interaction

Further lines, results first:

effect of a mutation on the interaction | Substance
increasing interaction | Leucine-rich repeat serine/threonine-protein kinase 2 (Homo sapiens), Q5S007 G2019S
decreasing interaction | Leucine-rich repeat serine/threonine-protein kinase 2 (Homo sapiens), Q5S007 T1348N
increasing interaction | Leucine-rich repeat serine/threonine-protein kinase 2 (Homo sapiens), Q5S007 Y1699C
